The target of one assay is T1, human CD40-Avi-tag (human, UniProt P25942 21-193).
T1 construct: Immobilized on NA-coated CM5 chips at about 200 RU; not shown: Avi-tag
Put plainly: SPR (Biacore 8K, 25 °C), hCD40 immobilized, 1:1 binding model. As to the method: (§1) To evaluate binding of the bispecific binding proteins disclosed herein, surface plasmon resonance (SPR) studies were performed on a Biacore 8k instrument (GE Healthcare) at 25° C. The binding of the protein analytes was tested in buffer: 10 mM HEPES, 150 mM NaCl, 3 mM EDTA, 0.05% TWEEN20, pH7.4 on surfaces consisting of a low density (˜200RU) of human CD40-Avi-tag or human CD80-Avi-tag which had been immobilized on NA-coated CM5 chips using standard protocol. The protein analytes were injected in a titration series at a flowrate of 50 ul/min. The data were analyzed using the Biacore Insight Evaluation software. An 1:1 binding kinetic and affinity models are applied for experimental data analysis. The value for the equilibrium dissociation constant (KD) was calculated as the ratio of the rate constants Kd/Ka.
A general note: SPR reads the build-up and loss of mass on a sensor chip optically.

The target of another assay is T2, human CD80-Avi-tag (human, UniProt P33681 35-242).
T2 construct: also called immobilized human CD80; not shown: Avi-tag
T2 sequence (looked up): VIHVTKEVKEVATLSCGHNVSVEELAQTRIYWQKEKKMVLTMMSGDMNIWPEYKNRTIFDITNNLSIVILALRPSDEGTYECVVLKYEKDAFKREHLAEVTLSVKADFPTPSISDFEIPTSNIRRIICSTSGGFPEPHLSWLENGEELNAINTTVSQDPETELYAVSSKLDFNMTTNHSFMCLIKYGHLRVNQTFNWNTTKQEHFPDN
Briefly: SPR (Biacore 8K, 25 °C), hCD80 immobilized, 1:1 binding model. How it is done: as §1

T1 sequence (P25942 21-193 limits assumed): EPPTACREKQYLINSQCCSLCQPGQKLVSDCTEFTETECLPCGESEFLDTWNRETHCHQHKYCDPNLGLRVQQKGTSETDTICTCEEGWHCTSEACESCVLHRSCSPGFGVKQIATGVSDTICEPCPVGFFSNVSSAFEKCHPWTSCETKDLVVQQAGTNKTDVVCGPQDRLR

B1: α-CD40/CTLA-4 bispecific protein (SEQ ID NO: 2 with SEQ ID NO: 11) (bispecific antibody, human IgG4 S228P, kappa)
heavy: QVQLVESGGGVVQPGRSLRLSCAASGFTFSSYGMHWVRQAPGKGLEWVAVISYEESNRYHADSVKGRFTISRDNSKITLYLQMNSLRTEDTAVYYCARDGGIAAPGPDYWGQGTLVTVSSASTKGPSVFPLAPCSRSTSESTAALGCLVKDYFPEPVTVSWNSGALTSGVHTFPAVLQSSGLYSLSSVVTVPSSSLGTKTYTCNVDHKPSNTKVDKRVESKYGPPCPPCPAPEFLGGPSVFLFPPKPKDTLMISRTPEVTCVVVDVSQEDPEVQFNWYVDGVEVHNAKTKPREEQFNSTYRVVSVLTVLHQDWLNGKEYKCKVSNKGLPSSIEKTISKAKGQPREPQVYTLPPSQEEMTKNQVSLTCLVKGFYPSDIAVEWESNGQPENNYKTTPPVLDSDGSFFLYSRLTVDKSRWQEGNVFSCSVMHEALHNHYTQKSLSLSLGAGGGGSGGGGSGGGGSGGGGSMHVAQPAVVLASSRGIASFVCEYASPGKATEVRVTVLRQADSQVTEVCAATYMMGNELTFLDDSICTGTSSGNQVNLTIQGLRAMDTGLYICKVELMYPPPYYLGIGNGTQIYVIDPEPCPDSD
light: DIVMTQSPLSLTVTPGEPASISCRSSQSLLYSNGYNYLDWYLQKPGQSPQVLISLGSNRASGVPDRFSGSGSGTDFTLKISRVEAEDVGVYYCMQARQTPFTFGPGTKVDIRRTVAAPSVFIFPPSDEQLKSGTASVVCLLNNFYPREAKVQWKVDNALQSGNSQESVTEQDSKDSTYSLSSTLTLSKADYEKHKVYACEVTHQGLSSPVTKSFNRGEC
notes: also called Duotein-B; exemplary α-CD40/CTLA-4 bispecific protein
By Kd is commonly meant the concentration at which binding is half-saturated. Higher therefore signals weaker binding. One may read the koff as the first-order rate constant of dissociation. As usually defined, the kon is the second-order rate constant of association. Lower therefore signals slow association. With B1, in the assay with human CD40-Avi-tag, binding was put at a Kd of 0.325 nM, the dissociation rate constant (koff) stood at 9.84e-05 s⁻¹ and the kon was 303000 M⁻¹ s⁻¹. In the assay with human CD80-Avi-tag, this molecule displayed a dissociation constant Kd of 154 nM, a koff of 0.12 s⁻¹ and an on-rate constant (kon) of 780000 M⁻¹ s⁻¹.

The values above are taken from US20240190978A1 (CSBIOASSET, published 2024).
